This test has as its target RhoGDIα S34D (phosphomimetic), bacterially expressed, hexahistidine-tagged (human) (UniProt P52565). The experiment in a line: pull-down.
Sequence of UniProt P52565 (P52565 whole entry S34D): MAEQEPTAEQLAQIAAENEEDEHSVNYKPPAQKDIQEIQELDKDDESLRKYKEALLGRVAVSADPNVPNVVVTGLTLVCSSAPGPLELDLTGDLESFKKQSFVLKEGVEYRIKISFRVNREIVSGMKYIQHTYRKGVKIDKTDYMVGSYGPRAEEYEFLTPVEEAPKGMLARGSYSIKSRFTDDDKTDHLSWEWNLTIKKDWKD

The substance “RhoA, endogenous in rat embryo fibroblasts (from UniProt P61589 1-193) (natural protein)” had a reduction of binding against wild-type RhoGDIα of 75%.
